Test: soluble on expression in E. coli; label from the status in PepcDB or PDB records
For “MAGDPMGQKTQQDIVAGLDEKAKEYTSYKAKAKMTIETGSEPQVYNVEIWHKKPSLYRVYLENPKKDQNQVILRNENGVFVLTPSLNKSFRFQSDWPNNSSQVYLFESLVKDVQNDSDAVFTAKEKKYVFETKTNYQHNKMLPTQEITFNKKDMSPSSVKVMDTDRKVMVKVEFSSFEFNKQFDKESFDEKKNMTLSQMDVATSAKPSDTFAVKTPLELPLGVKLLEEKDISTEDGKRIIMTYGGEKSFTLIQEKAQIAKASSSVTLNGEPVNLGYTIGALSDASLSWTYDGVDYLLSSKDLSKEEMVTVAKSMQGQSSKLEHHHHHH”, the “soluble on expression in E. coli” value was “soluble”.
For “MPSPARRSRRRRSSLLNFSFSEVDLEQQRRALEMFEQQMNDQAFAQLIHDHDVQHINNDANQVPAAPNTPPVPVPPPVQQPQASPNASPVSVLRRRRYANPEQERFGDISRRIHNPANQIPAAPNTQPEVPPTVQQPESSSQERASPTSPEITIFSTGLLGLRRRSSARISIRMSATAQTNLPITPIRRRRGRAVSPILEIEFENLSSSSSGTSGDSGNHSSPTNTNDQSFIGDDARTYDQEHVPIDFEGPSTSTGITDRHPRRRNQDGSHGECTMCFEVPVSPLGCNNCLQIIGCEECVDIWYRSSSKPSCPLCRRKWARKPDVSKMSVISVRKQSSLRRSKRRITSK”, the “soluble on expression in E. coli” value was “not soluble”.
For “MASRGKTETSKLKQNLEEQLDRLMQQLQDLEECREELDTDEYEETKKETLEQLSEFNDSLKKIMSGNMTLVDELSGMQLAIQAAISQAFKTPEVIRLFAKKQPGQLRTRLAEMDRDLMVGKLERDLYTQQKVEILTALRKLGEKLTADDEAFLSANAGAILSQFEKVSTDLGSGDKILALASFEVEKTKK”, the “soluble on expression in E. coli” value was “not soluble”.
With “GPGSMSINFSAPYLVTEMEEKVVTSLPSGDTASGSGESTASPPIVISAAVPYTEEEKKLLTEQLRRHQRQQSQGDDDSSWNETTLPFISSMVEKVLQLAAQNRESDSTKDSGSGDENKPQEKANATDDVAGADAVSKVDTFVEDNDYVLEQLRLQPWPFFTLPRLCEILADPYKYNSIGDKLRGEKLQSAIRRCVLVSAPLNCDVRNNSS” the “soluble on expression in E. coli” value was “not soluble”.
In the case of “MGSDKIHHHHHHMCRLLAYLGSPVSLEYLLYKPEHSLIVQSYQPREMTSGVVNADGFGVGWYHSQKDTEPFTYKNTLPIWNDINLPSLSRYVESKCILAYVRSATAGQALDFANCQPFHYKQSLFIHNGYIENFRKTLHRKLRSTLTPDFYEHINGSTDSEHIFALLLSQIQSNKHRSVESVLRNTLLMLWEMAKRHQVNASANVVFSDGHRLIASRFASSSSPPSLYWLKDDLTFPNSVIIASEPLFAGNWTACPENSIISVGEDCDIKIESI”, the “soluble on expression in E. coli” value was “not soluble”.
For “MGSDKIHHHHHHMINKYKVSENRLSIMEIERFAVHDGPGIRTVVFLQGCPLHCSWCSNPESQKRKPHLLHIKNKCIGCGRCEAICPRGNISIQDHFPVFNRQACVACKACERICPQNAIKFVGESITSSEIMEILLRDRDYYLNSGGGVTFSGGEAFTQFEGLMDLLIQCKNEKLHTSVETCGQVNLDKIKQALPLIDLFLFDIKHTDKDLLQKETGANLDTILTNLRYISSKSANKVTIRVPVIPGFNFNENTLREIFMLAKENRIKCVHLLPYHTLGKDKYEQLGLTYPYSCEQMLAKEELFPFKEMGEKMGLEIRIGG”, the “soluble on expression in E. coli” value was “not soluble”.
For “MVHYKLTYFNGRGAGECARQVFALADQKYEDVRLTQETFVPLKATFPFGQVPVLEVDGQQLAQSQAICRYLAKTFGFAGATPFESALIDSLADAYTDYRAEMKTYYYTALGFMTGDVDKPKTDVLLPARTKFLGFITKFLKKNSSGFLVGDKISWVDLLVAEHVADMTNRVPEYIEGFPEVKAHMERIQQTPRIKKWIETRPETPF”, the “soluble on expression in E. coli” value was “soluble”.
With “MGSDKIHHHHHHMPTYDAVIVGSGINSLVCAAVLARSGKRVCVLERNSTLGGCIRTEALHAPGYLHDTLSTAHPLFVTSPGYAELKDDLHQAGLSYANNDTPTGVLLPGNRSLILATSRERNVSAFNALASGDGDAYLAAMQEVEQNAGLVFSLLGNELWSADVAKTVAGRLWKQGVHDTVAFFSPALMSCRSWLETRIRSDLVRALLAPWVLHTGLGPESAMSALMGKVVAFSLEAVGLPIVQGGNARTVEAFRQIVESHGGAFHVNADVEDVLVENGSARGVRTRDDRVFMGKEIICNVTPGQLYGKLLAPAHVPPALRQQAAEYRYGKGNMQIHLSLSAPPDWPHAHLRNVIYLHLTSGLDGVSRAVSEAERGLLPAEGTICVAQPCAVDPSRSPAGGWVLWIQVPECPRTIKGDALGEIDAPADGRWTPEIRERYADRIIDRIARQVPNLKASIVGRTVLSPADLEAMNINLVGGDPYSGECSIDQFMVWRPLRGARNHATPVKHLHHIGASTHPGPGLGGTSGYHVANALARKRAKSNRT” the “soluble on expression in E. coli” value was “not soluble”.
In the case of “MFFQSIYQMMSAGTDLNINIRRTDGKLSVAVIPKRTTLKDEAGQAIVPLILNGTPMELDGQFLQIITTPLQKAQGILTNLETFEQQARLAATQGKAAGTANDKKTKEAREKQEKMEKLLKRAEEAFTAGRYSEATTCFRQAKVLADTDRQKQIEARIQEVQKESSQGCLFPETDTQPLPQQPPANGTANGNRPDGQMRMFTSQPPQQPVQQAIPQPVQQPVPRPQIVQPQPVPQYYPGTPQPQPMYEGYCRNPANGSPQQTAEQPQTYFLQPGGQYPQTQPWQQPQPVPLQPQATVIQTTRENTGREYQSPPQPAAEALTFDKDDESDRELLREDPYAEYIDFPQECRMKDETQAELICC”, the “soluble on expression in E. coli” value was “not soluble”.
With “SKNPEEAAEGKQRIHLRPGSLRGAAPAKLHLLPCDVLVSRPAPVDRFFTPAVRHDADGLQASFRGRGLRGEEVAVPPGFAGFVMVTEEKGEGLIGKLNFSGDAEDKADEAQEPLERDFDRLIGATGSFSHFTLWGLETVPGPDAKVHRALGWPSLAAAIHAQVPED” the “soluble on expression in E. coli” value was “soluble”.
With “LVSGVICAAIGAVALLGTQAVLKSTNSTEFCVSCHSMTHPQAEWEGSVHFSNRKGIRAECADCHVPQDSWHYVKAKVAAVKDVWHTFVTNKIPDQEAYEKHRLEMAQHVWQDMKETDSATCRSCHSFDAMVLAEQREAAQKMHKIAQETNQTCIDCHKGIAHFMPEMPADNSAALGELAKHGGKFNSADKVLYSLAMTSAKLAQGSEIRLLPFAELHNWQEEGDKIVAVVKGWQQVGAEGVIYSGLGQRIMVGLVDDAAKDKLTVHQVVNDKVTNSDWKEVSTSVSLPKAALTADIKSLNDFGSNLNQTHCSGCHAPISANHYTA” the “soluble on expression in E. coli” value was “not soluble”.
With “MGSDKIHHHHHHMEFVFGKKVFQSEVRKASDLKPVLAFPEALKEDFDAYYMFRDSFKTDEEAEIIRNAGLRYDYTVIPPNNIGGESIKTYGHYHPEVVRGFTYPEVYQVLEGEALFILQKPSNGKIEDVIVVEGKKWDTVIIPPNYGHVTINPTESDLITANWVCRNFSSIYEPYTKRRGACYYYINGEWVRNRNYDDAPEIRFAKPKNVLDVKGDMYDLVYTIEKLEFLVKPHEHQEIFENAFEVV” the “soluble on expression in E. coli” value was “not soluble”.
In the case of “MGSDKIHHHHHHMRHLKAFYVFHITAESSSYSQAAEKLHITHGAVSKQIKLLENHLSQILFYKQGRGMCLTQEGELLKRYTDIAFNTLDSGVKQLTRESHHYLEVSCEPTLTMRWLMPRLASFFQLTGIDVRLSTAGGPVKLAESGLSLAIRRDDFHIPPEYNKHNLVSEWAGPVFSPEYWCQIQQNWGDIVLLHSDSRPSAWSDWSQRSGHNFSTNKSKSFEHFYFCLQAAVDGLGGAIGSYPLIVDDLTSGRLVAPFGFIPSGHHYVLLSHTEKLVNNELSFFNWLEDTLSLCQPKTAKAAKPV”, the “soluble on expression in E. coli” value was “not soluble”.
In the case of “MGSDKIHHHHHHMLFNQLQNETNLTNSEKEIARYLLNQNLDLATLSAQKLGELTFTSKPTVLRFIKKLGYKKFNEFCYDLISEQERIKKSRDLLKHININKDSNLSDLLIKVPNLYNQAINRTNSLMDQENLNLIVKKLNTLDYIDFYGSGITEGLAQIGSFKFSSIGKFGGVYSNVNEHYLTSIHGINKHGAIIISFTGGNKAMINAAKDLKKLNIYSLGIGGLENEELKNNCSSYLTIPFENLSLGMESIVPSVAINYVIDILFTSLTIKNLSQNVTNALKVKNLRK”, the “soluble on expression in E. coli” value was “not soluble”.
In the case of “MADRRRTDDNKGAREVVLLLNIGSPDSPEEKDVARYLNSFLTDRRIITLPFLLRQLLVRGIITPFRKKSSAQKYRTVWDESTRSFPLISHTKAIARALAHTGREVHVAMRYGKPAVADVLKELPHGRSLVVLPLFPHYAMSSYETAVEHCKAEIRRLCPNLSFRVVQPFYAHEAYIRVLADNIRPYLTKPFDKLILSYHGIPRDHLDKTTRQALNLRHPEGCCTEEDPTANVCYRYQTYRTTALIREALGLAEEQVEQVFQSRVGHTEWLRPYLIERLSAWPQEETKRILIACPSFVCDCLESLEEVADHGQSIFKKAGGADFTYIPCLNSGANWIDALRNILEE”, the “soluble on expression in E. coli” value was “not soluble”.
In the case of “MILTPPDTPFFLRNGNADTIAAKFLQRPAPAYRRELLPDSTGKTKVAYDFSDGISPDAPLVVLFHGLEGSSRSHYAVELMLAVRDRGWHGVVVHFRSCGGIANTAPVFYHLGDTAEIAFTLDTFAARYREIYAVGVSLGGNALAKYLGEQGKKALPQAAAVISAPVDAEAAGRRFDSGITRLLYTRYFLRTLIPKAKSLQGFQTAFAAGCKTLGEFDDRFTAPLHGFADRHDYYRQTSCKPLLKHVAKPLLLLNAVNDPFLPPEALPRADEVSEAVTLFQPAYGGHVGFVSSTGGRLHLQWLPQTVLSYFDSFRTNRR”, the “soluble on expression in E. coli” value was “not soluble”.
For “MGSDKIHHHHHHMLKSQEIRQKAPELDSLRLGSGWKSEELNKAQIIIESSFGHSHPGSAHLDTLVDEAFKSIDDNGGRGAKYFVTDICDGETQGHDGMNYSLASRDIMTNLMEIHVQATPFDAGIFIASCDKAVPAHLMAIARLDMPSILVPGGIMNAGPNMLTLEQIGTYNAQYERGEITKEQYEHYKQNACPSCGACSFMGTASTMQVMSEALGIALPGTALIPVTSKELKLAAKNAGKQILKLIELNIKPSEIMTKKAFENAIMVHAAIAGSSNCLLHIPAIAHELGMDIEPELFDEIHKKIPYILNIRPSGFYPGSYFWNAGGVPAIMEEIKEFLHLDVMTVTGKTLGENLEDLKNSGYYEEHDKLITSLGIKKEDVIRTKENPIQSQGAIAILKGNLAPGGAVVKHSAISKKLMQVVLKARVFNCEEDAIKSVLTKNIKPGDAVFVRYEGPKGSGMPEMFYTTEAIASDHELVDSTALITDGRFSGATRGPAIGHVSPEASEGGPIAFVQEGDLIKIDIPARKLDIIGTNGIEKSEKEIENILKERSQNWVKPAPRYTKGILGLYTRCASSPMKGGYME”, the “soluble on expression in E. coli” value was “not soluble”.
For “MGVSLSKGGNVSLTKEAPGLTAVIVGLGWDVRTTTGTDFDLDASALLTNVEGKVANDQNFVFFNNLKSPDGSVEHTGDNITGEGEGDDEQIKVDLATVPADVDKIVFPVSIYDAENRQQSFGQVRNAFIRVVNQAGGAEIARYDLSEDASTETAMVFGELYRNGPEWKFRAIGQGYASGLRGIAQDFGVNV”, the “soluble on expression in E. coli” value was “not soluble”.
For “GGRLLGALCVFKDITDAVELAEEVTNLKQVRTMLEAIIQSSDEAISVVDENGIGLLINKAYTKMTGLSEKEVIGKPANTDISEGESMHLKVLETRRPVRGVRMKVGPNEKEVIVNVAPVIVDG”, the “soluble on expression in E. coli” value was “not soluble”.
For “MEKTVIGVVHLLPLPGSPEHTDLSAVIDKAVKDARAIEEGGADALILENYGDKPFLKEVGKETVAAMTVIACEVKRDVSIGLGINVLRNDAVAALAIAKAVNADFVRVNQLFFTSVSPEGILEGKAGEVMRYKKLVDCRAMIFADIAVKHAVHFASLEDYCLNAERSLADAVILTGKTTGGEVSLEELKYAKKTLKMPVLAGSGVNAENAARILKWCDGVIVGTYIKRGGLVDAERVRRIVRAAKGLEHHHHHH”, the “soluble on expression in E. coli” value was “not soluble”.

From the DeepSol protein solubility set
